{
  "source": "FireProtDB",
  "parents": {"B1": {"name": "Formate dehydrogenase, O13437 (parent)", "chain": "MKIVLVLYDAGKHAADEEKLYGCTENKLGIANWLKDQGHELITTSDKEGETSELDKHIPDADIIITTPFHPAYITKERLDKAKNLKLVVVAGVGSDHIDLDYINQTGKKISVLEVTGSNVVSVAEHVVMTMLVLVRNFVPAHEQIINHDWEVAAIAKDAYDIEGKTIATIGAGRIGYRVLERLLPFNPKELLYYDYQALPKEAEEKVGARRVENIEELVAQADIVTVNAPLHAGTKGLINKELLSKFKKGAWLVNTARGAICVAEDVAAALESGQLRGYGGDVWFPQPAPKDHPWRDMRNKYGAGNAMTPHYSGTTLDAQTRYAEGTKNILESFFTGKFDYRPQDIILLNGEYVTKAYGKHDKK"}, "B2": {"name": "FMN-dependent NADH:quinone oxidoreductase 1, Q88IY3 (parent)", "chain": "MKLLHIDSSILGDNSASRQLSREVVEAWKAADPSVEVVYRDLAADAIAHFSAATLVAAGTPEDVRDAAQAFEAKLSAETLEEFLAADAVVIGAPMYNFTVPTQLKAWIDRVAVAGKTFRYTEAGPQGLCGNKKVVLVSTAGGLHAGQPTGAGHEDFLKVFLGFIGITDLEIVRAHGLAYGPEQRSQAIDAAQAQIASELFAAA"}, "B3": {"name": "L7I|R17V|A28D|A35R|L110F|S111V|S115E|L120R|H121Y|G123D|T138Q|D139G|E140D|Q144E|A149D|Q165D|D174E|K234H|E237D, Q88HV5 (parent)", "chain": "MPFQQGLLATPVPAHARHLFFTLQSPEALPAALDALLPQVDGKQLLLGVGAPLAKALGREIPGLRPFPLLDAAVENPSTQHALWLWLRGDERGDLLLRTQALEQALAPALSLADSVDGFLHRGGHDLTGYEDGTENPTDEEAVQAAIAADGSSFAAFQLWKHDLQYFKSLPQADQDNIIGRRLSDNEELDDAPASAHVKRTAQESFEPEAFMVRRSVSWADQRGAGLAFVALGKSFEAFEVQLRRMSGLEDGIIDGLYRFSRPLTGGYYWCPPMSETGVDLSPLLRA"}},
  "data": [
    {"variants_of": "B1", "conditions": "Candida boidinii; whole UniProt chain shown", "units": {"Tm": "°C"}, "values": [
      {"variant": "N350W", "Tm": 54},
      {"variant": "A264P", "Tm": 59},
      {"variant": "D149L", "Tm": 58},
      {"variant": "C23S", "Tm": 54},
      {"variant": "A10C", "Tm": 64},
      {"variant": "A141M", "Tm": 35},
      {"variant": "S333Y", "Tm": 55}
    ]},
    {"variants_of": "B2", "conditions": "Pseudomonas putida (strain ATCC 47054 / DSM 6125 / CFBP 8728 / NCIMB 11950 / KT2440); Fluorescence spectroscopy; whole UniProt chain shown", "units": {"Tm": "°C", "ddG of mutation (higher = less stable)": "kcal/mol"}, "values": [
      {"variant": "Q192R A46P V159A C129S A178D A88G N131D L143Q", "Tm": 44, "ddG of mutation (higher = less stable)": -1.9},
      {"variant": "Q192R A46P V159A C129S", "Tm": 51, "ddG of mutation (higher = less stable)": -0.6},
      {"variant": "Q192R A46P V159A", "Tm": 55, "ddG of mutation (higher = less stable)": -0.8},
      {"variant": "Q192R A46P V159A C129S D7H A178D", "Tm": 54, "ddG of mutation (higher = less stable)": 1.5},
      {"variant": "Q192R A46P V159A A48P", "Tm": 55, "ddG of mutation (higher = less stable)": 3.3},
      {"variant": "Q192R A46P V159A A48P Y179H", "Tm": 55, "ddG of mutation (higher = less stable)": -0.3}
    ]},
    {"variants_of": "B3", "conditions": "Pseudomonas putida (strain ATCC 47054 / DSM 6125 / CFBP 8728 / NCIMB 11950 / KT2440); pH 7.6; Fluorescence spectroscopy; whole UniProt chain shown", "units": {"Tm": "°C"}, "values": [
      {"variant": "L7I R17V A28D A35R L110F S111V S115E L120R H121Y G123D T138Q D139G E140D Q144E A149D Q165D D174E K234H E237D", "Tm": 65},
      {"variant": "V49I E91D L96F L97H T99A E103I L110F S111V S115E V217M Q222G", "Tm": 65},
      {"variant": "A9L S25F A54V D94E Q100R L110F A149L A155V V217M S218P Q222G", "Tm": 66},
      {"variant": "L7I E91D L110F S111V Q165D D174E A194E V217M Q222G K234H E237D", "Tm": 71},
      {"variant": "S25F E91D D94E L110F G118A L120R H125R D139G A149L A155V S169A D174E", "Tm": 75},
      {"variant": "L7I R17V V49I Q165D V217M Q222G K234H P283A", "Tm": 73},
      {"variant": "A28D A35R V49I L110F S111V S115E L120R H121Y G123D T138Q D139G E140D Q144E A149D Q222G P283A", "Tm": 74},
      {"variant": "A9L S25F A54V E91D D94E L110F G118A L120R H125R D139G A149L S169A V217M S218P Q222G L232F E237D V279L", "Tm": 70},
      {"variant": "A9L S25F D139G A149L A155V", "Tm": 68},
      {"variant": "L7I R17V A28D A35R E91D E103I L110F S111V S115E L120R H121Y G123D T138Q D139G E140D Q144E Q165D K234H E237D", "Tm": 73},
      {"variant": "A9L E91D D94E Q100R L110F G118A L120R H125R D139G A149L A155V S169A V217M S218P Q222G L232F V279L", "Tm": 69},
      {"variant": "L7I A194E Q222G K234H E237D", "Tm": 65},
      {"variant": "A9L S25F A54V E91D D94E Q100R L110F G118A L120R H125R D139G A149L A155V S169A D174E V217M S218P Q222G L232F E237D V279L", "Tm": 74},
      {"variant": "A9L S25F A54V E91D D94E Q100R L110F G118A L120R H125R D139G A149L V217M S218P Q222G L232F E237D", "Tm": 83},
      {"variant": "A9L S25F D139G A149L A155V V279L", "Tm": 68},
      {"variant": "L7I R17V A35R Q165D E237D", "Tm": 75},
      {"variant": "L7I R17V A28D A35R V49I A149D D174E Q222G K234H E237D", "Tm": 69},
      {"variant": "L7I R17V V49I Q165D V217M K234H E237D P283A", "Tm": 68},
      {"variant": "L7I R17V A28D E91D L96F L97H T99A E103I L110F S111V S115E L120R H121Y G123D T138Q A149D Q165D", "Tm": 71},
      {"variant": "L7I R17V A28D A35R V49I E91D L96F L97H T99A E103I Q165D V217M Q222G K234H E237D", "Tm": 67},
      {"variant": "L7I R17V V49I Q165D D174E V217M Q222G E237D P283A", "Tm": 68},
      {"variant": "L7I R17V A28D V49I E91D L96F L97H T99A E103I L110F S111V S115E L120R H121Y G123D T138Q D139G E140D Q144E A149D", "Tm": 65},
      {"variant": "A9L S25F A54V D139G S169A D174E E237D", "Tm": 65},
      {"variant": "A9L S25F A54V A149L V217M S218P Q222G L232F E237D", "Tm": 66},
      {"variant": "L7I R17V A28D A35R V49I E91D L96F L97H T99A E103I L110F S111V S115E L120R H121Y G123D T138Q D139G E140D Q144E A149D Q165D D174E A194E V217M Q222G K234H E237D P283A", "Tm": 83},
      {"variant": "A9L S25F L110F G118A L120R H125R S169A D174E V217M S218P Q222G L232F E237D", "Tm": 75},
      {"variant": "A9L S25F Q100R L110F G118A L120R H125R D139G A149L S169A E237D", "Tm": 70},
      {"variant": "A9L Q100R L110F G118A L120R H125R D139G L232F V279L", "Tm": 74},
      {"variant": "R17V A28D V49I E91D L96F L97H T99A E103I T138Q D139G E140D Q144E A149D Q165D D174E A194E V217M Q222G K234H E237D P283A", "Tm": 82}
    ]}
  ]
}
